In IntAct's records for PubMed 22238662:

B1: Adhesion G-protein coupled receptor G1 (Mus musculus), Q8K209 (parent)
chain: MAVQVLRQMVYFLLSLFSLVQGAHSGSPREDFRFCGQRNQTQQSTLHYDQSSEPHIFVWNTEETLTIRAPFLAAPDIPRFFPEPRGLYHFCLYWSRHTGRLHLRYGKHDYLLSSQASRLLCFQKQEQSLKQGAPLIATSVSSWQIPQNTSLPGAPSFIFSFHNAPHKVSHNASVDMCDLKKELQQLSRYLQHPQKAAKRPTAAFISQQLQSLESKLTSVSFLGDTLSFEEDRVNATVWKLPPTAGLEDLHIHSQKEEEQSEVQAYSLLLPRAVFQQTRGRRRDDAKRLLVVDFSSQALFQDKNSSQVLGEKVLGIVVQNTKVTNLSDPVVLTFQHQPQPKNVTLQCVFWVEDPASSSTGSWSSAGCETVSRDTQTSCLCNHLTYFAVLMVSSTEVEATHKHYLTLLSYVGCVISALACVFTIAAYLCSRRKSRDYTIKVHMNLLSAVFLLDVSFLLSEPVALTGSEAACRTSAMFLHFSLLACLSWMGLEGYNLYRLVVEVFGTYVPGYLLKLSIVGWGFPVFLVTLVALVDVNNYGPIILAVRRTPERVTYPSMCWIRDSLVSYVTNLGLFSLVFLFNLAMLATMVVQILRLRPHSQNWPHVLTLLGLSLVLGLPWALVFFSFASGTFQLVILYLFSIITSFQGFLIFLWYWSMRFQAQGGPSPLKNNSDSAKLPISSGSTSSSRI

Variants of: B1
Conditions: with co3a1_mouse Col3a1, P08121
co3a1_mouse Col3a1, P08121, sequence (P08121 whole entry): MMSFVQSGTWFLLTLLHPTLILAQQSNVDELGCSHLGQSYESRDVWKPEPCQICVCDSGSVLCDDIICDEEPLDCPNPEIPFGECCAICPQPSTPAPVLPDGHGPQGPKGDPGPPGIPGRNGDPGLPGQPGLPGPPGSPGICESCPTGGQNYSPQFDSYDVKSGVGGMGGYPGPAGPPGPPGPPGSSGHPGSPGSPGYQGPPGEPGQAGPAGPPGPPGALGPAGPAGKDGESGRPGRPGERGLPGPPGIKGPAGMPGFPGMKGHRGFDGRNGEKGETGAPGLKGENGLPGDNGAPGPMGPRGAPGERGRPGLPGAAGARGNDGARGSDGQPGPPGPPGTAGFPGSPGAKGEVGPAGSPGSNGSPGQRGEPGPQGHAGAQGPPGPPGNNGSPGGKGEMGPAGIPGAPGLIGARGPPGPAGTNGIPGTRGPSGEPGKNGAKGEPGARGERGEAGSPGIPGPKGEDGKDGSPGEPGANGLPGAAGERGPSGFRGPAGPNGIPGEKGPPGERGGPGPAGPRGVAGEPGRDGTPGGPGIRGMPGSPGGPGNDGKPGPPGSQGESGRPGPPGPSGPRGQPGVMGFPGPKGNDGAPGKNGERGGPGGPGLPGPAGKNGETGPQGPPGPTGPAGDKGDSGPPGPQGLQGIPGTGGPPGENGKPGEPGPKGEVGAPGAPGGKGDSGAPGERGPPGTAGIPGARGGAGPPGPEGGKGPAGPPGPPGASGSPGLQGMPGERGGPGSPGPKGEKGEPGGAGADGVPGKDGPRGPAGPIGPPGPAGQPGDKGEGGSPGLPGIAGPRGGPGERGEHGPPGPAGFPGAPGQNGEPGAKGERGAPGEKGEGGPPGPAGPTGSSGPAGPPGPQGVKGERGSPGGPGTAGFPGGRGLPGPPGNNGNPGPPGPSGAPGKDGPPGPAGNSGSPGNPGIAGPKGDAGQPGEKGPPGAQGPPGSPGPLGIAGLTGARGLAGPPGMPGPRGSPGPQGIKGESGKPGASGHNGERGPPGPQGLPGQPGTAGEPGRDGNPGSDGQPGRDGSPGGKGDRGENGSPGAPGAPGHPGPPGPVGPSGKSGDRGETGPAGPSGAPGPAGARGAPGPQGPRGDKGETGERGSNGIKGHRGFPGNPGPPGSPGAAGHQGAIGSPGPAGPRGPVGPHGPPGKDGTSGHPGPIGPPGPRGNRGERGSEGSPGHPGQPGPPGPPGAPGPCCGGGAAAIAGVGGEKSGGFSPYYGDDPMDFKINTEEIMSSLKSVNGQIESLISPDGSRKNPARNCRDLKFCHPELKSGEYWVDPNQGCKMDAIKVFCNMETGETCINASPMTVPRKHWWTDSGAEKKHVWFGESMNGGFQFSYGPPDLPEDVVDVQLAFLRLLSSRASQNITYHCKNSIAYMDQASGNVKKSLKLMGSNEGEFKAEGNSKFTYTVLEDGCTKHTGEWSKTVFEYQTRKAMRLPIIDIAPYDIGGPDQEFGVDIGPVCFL

Effect of a mutation on the interaction, disrupting interaction:
R38Q
R38W
Y88C
C91S
